Measured values reported in patent US20210388110A1 (published 2021).
Residue numbers refer to the chain shown, from its start. One block for each binder: values may come before it.

Biological target: T1, soluble human CD3ε chain (human, UniProt P07766 23-126, limits assumed)
T1 construct: the text says soluble human CD3ε chain; also called human CD3 epsilon chain
Assay: SPR (Biacore)

T1 sequence (P07766 23-126 limits assumed): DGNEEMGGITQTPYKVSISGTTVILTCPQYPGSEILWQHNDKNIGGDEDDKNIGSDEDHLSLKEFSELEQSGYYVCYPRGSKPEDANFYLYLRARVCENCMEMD

Kd: 9.48 nM
B1: CE115HA252-E22Hh//-Hi-Kn010G3/L0000-k0 (antibody, human IgG1, kappa, L234A L235A, N297A)
heavy: QVQLVESGGGVVQPGRSLRLSCAASGFTFSNAWMHWVRQAPGKGLEWVAQIKAKSNNYKKYYAESVKGRFTISRDDSKNSLYLQMNSLKTEDTAVYYCRYVHYYYYYGVDAWGQGTTVTVSSASTKGPSVFPLAPSSKSTSGGTAALGCLVKDYFPEPVTVSWNSGALTSGVHTFPAVLQSSGLYSLSSVVTVPSSSLGTQTYICNVNHKPSNTKVDKKVEPKSCDKTHTCPPCPAPEAAGGPSVFLFPPKPKDTLMISRTPEVTCVVVDVSHEDPEVKFNWYVDGVEVHNAKTKPREEQYASTYRVVSVLTVLHQDWLNGKEYKCKVSNKALPAPIEKTISKAKGQPREPQVYTLPPSRCELTKNQVSLSCAVKGFYPSDIAVEWESNGQPENNYKTTPPVLDSDGSFFLVSKLTVDKSRWQQGNVFSCSVMHEALHNHYTQKSLSLSPDYKDDDDK
chain: EPKSSDKTHTCPPCPAPELLGGPSVFLFPPKPKDTLMISRTPEVTCVVVDVSHEDPEVKFNWYVDGVEVHNAKTKPREEQYNSTYRVVSVLTVLHQDWLNGKEYKCKVSNKALPAPIEKTISKAKGQPREPQVCTLPPSRDELTKNQVSLWCLVKGFYPSDIAVEWESNGQPENNYKTTPPVLDSDGSFFLYSKLTVDKSRWQQGNVFSCSVMHEALHNRYTQKSLSLSP
light: DIVMTQSPLSLPVTPGEPASISCRSSQSLVHSNRNTYLHWYQQKPGQAPRLLIYKVSNRFSGVPDRFSGSGSGTDFTLKISRVEAEDVGVYYCGQGTQVPYTFGQGTKLEIKRTVAAPSVFIFPPSDEQLKSGTASVVCLLNNFYPREAKVQWKVDNALQSGNSQESVTEQDSKDSTYSLSSTLTLSKADYEKHKVYACEVTHQGLSSPVTKSFNRGEC
notes: single-arm

Kd: 38.6 nM
B2: TR01H025-E22Hh/none-Hi-Kn010G3/L0000-k0 (antibody, human IgG1, kappa, L234A L235A, N297A)
heavy: QVQLVESGGGLVQPGRSLRLSCAASGFTFSNAWMHWVRQAPGKGLEWVAQIKSKSQNYATYYAESVKGRFTISRADSKNSIYLQMNSLKTEDTAVYYCRYVHYSASYGVDIWGQGTTVTVSSASTKGPSVFPLAPSSKSTSGGTAALGCLVKDYFPEPVTVSWNSGALTSGVHTFPAVLQSSGLYSLSSVVTVPSSSLGTQTYICNVNHKPSNTKVDKKVEPKSCDKTHTCPPCPAPEAAGGPSVFLFPPKPKDTLMISRTPEVTCVVVDVSHEDPEVKFNWYVDGVEVHNAKTKPREEQYASTYRVVSVLTVLHQDWLNGKEYKCKVSNKALPAPIEKTISKAKGQPREPQVYTLPPSRCELTKNQVSLSCAVKGFYPSDIAVEWESNGQPENNYKTTPPVLDSDGSFFLVSKLTVDKSRWQQGNVFSCSVMHEALHNHYTQKSLSLSPDYKDDDDK
chain: B1 chain
light: B1 light
notes: single-arm

Kd: 57.3 nM
B3: TR01H032-E22Hh/none-Hi-Kn010G3/L0000-k0 (antibody, human IgG1, kappa, L234A L235A, N297A)
heavy: B2 heavy with I111A
chain: B1 chain
light: B1 light
notes: single-arm

Kd: 21.7 nM
B4: TR01H007-E22Hh/none-Hi-Kn010G3/L0000-k0 (antibody, human IgG1, kappa, L234A L235A, N297A)
heavy: B2 heavy with Q56N, S104G, S106Y
chain: B1 chain
light: B1 light
notes: single-arm

Kd: 61.3 nM
B5: TR01H015-E22Hh/none-Hi-Kn010G3/L0000-k0 (antibody, human IgG1, kappa, L234A L235A, N297A)
heavy: B2 heavy with S53G, Q56N
chain: B1 chain
light: B1 light
notes: single-arm

Kd: 40.3 nM
B6: TR01H003-E22Hh//-Hi-Kn010G3/L0000-k0 (antibody, human IgG1, kappa, L234A L235A, N297A)
heavy: B1 heavy with K59A, K60T, Y100R, Y104G, Y105A
chain: B1 chain
light: B1 light
notes: single-arm

Kd: 36.9 nM
B7: TR01H016-E22Hh/none-Hi-Kn010G3/L0000-k0 (antibody, human IgG1, kappa, L234A L235A, N297A)
heavy: B2 heavy with S53G, Q56N, A105Y
chain: B1 chain
light: B1 light
notes: single-arm

Kd: 64.8 nM
B8: TR01H020-E22Hh/none-Hi-Kn010G3/L0000-k0 (antibody, human IgG1, kappa, L234A L235A, N297A)
heavy: B2 heavy with S53G, Q56N, E64P
chain: B1 chain
light: B1 light
notes: single-arm

Kd: 35 nM
B9: TR01H017-E22Hh/none-Hi-Kn010G3/L0000-k0 (antibody, human IgG1, kappa, L234A L235A, N297A)
heavy: B2 heavy with R16G, S53A, Q56N, S104G, S106Y
chain: B1 chain
light: B1 light
notes: single-arm

Kd: 23 nM
B10: TR01H006-E22Hh/none-Hi-Kn010G3/L0000-k0 (antibody, human IgG1, kappa, L234A L235A, N297A)
heavy: B2 heavy with S53A, S104G, S106Y
chain: B1 chain
light: B1 light
notes: single-arm

Kd: 7.94 nM
B11: TR01H012-E22Hh/none-Hi-Kn010G3/L0000-k0 (antibody, human IgG1, kappa, L234A L235A, N297A)
heavy: B2 heavy with S53A, Q56N, S104Y, A105Y
chain: B1 chain
light: B1 light
notes: single-arm

Kd: 63.4 nM
B12: TR01H015-E22Hh/none-Hi-Kn010G3/TR01L003-k0 (antibody, human IgG1, kappa, L234A L235A, N297A)
heavy: B2 heavy with S53G, Q56N
chain: B1 chain
light: B1 light with L109V, K112E
notes: single-arm

Kd: 69.3 nM
B13: TR01H018-E22Hh/none-Hi-Kn010G3/L0000-k0 (antibody, human IgG1, kappa, L234A L235A, N297A)
heavy: B2 heavy with R16G, S53G, Q56N
chain: B1 chain
light: B1 light
notes: single-arm

Kd: 68.5 nM
B14: TR01H019-E22Hh/none-Hi-Kn010G3/L0000-k0 (antibody, human IgG1, kappa, L234A L235A, N297A)
heavy: B2 heavy with S53G
chain: B1 chain
light: B1 light
notes: single-arm

Kd: 69.5 nM
B15: TR01H027-E22Hh/none-Hi-Kn010G3/L0000-k0 (antibody, human IgG1, kappa, L234A L235A, N297A)
heavy: B2 heavy with R16G, I111A
chain: B1 chain
light: B1 light
notes: single-arm

Kd: 49.4 nM
B16: TR01H013-E22Hh/none-Hi-Kn010G3/L0000-k0 (antibody, human IgG1, kappa, L234A L235A, N297A)
heavy: B2 heavy with S53G, S104G, S106Y
chain: B1 chain
light: B1 light
notes: single-arm

Kd: 65.3 nM
B17: TR01H015-E22Hh/none-Hi-Kn010G3/TR01L005-k0 (antibody, human IgG1, kappa, L234A L235A, N297A)
heavy: B2 heavy with S53G, Q56N
chain: B1 chain
light: B1 light with Q42L, A48S, R50Q, L109V, K112E
notes: single-arm

Kd: 48 nM
B18: TR01H028-E22Hh/none-Hi-Kn010G3/L0000-k0 (antibody, human IgG1, kappa, L234A L235A, N297A)
heavy: B2 heavy with L11V, R16G
chain: B1 chain
light: B1 light
notes: single-arm

Kd: 51.2 nM
B19: TR01H026-E22Hh/none-Hi-Kn010G3/L0000-k0 (antibody, human IgG1, kappa, L234A L235A, N297A)
heavy: B2 heavy with R16G
chain: B1 chain
light: B1 light
notes: single-arm

Kd: 65.4 nM
B20: TR01H030-E22Hh/none-Hi-Kn010G3/L0000-k0 (antibody, human IgG1, kappa, L234A L235A, N297A)
heavy: B2 heavy with L11V, S53G, Q56N
chain: B1 chain
light: B1 light
notes: single-arm

Kd: 38.7 nM
B21: TR01H014-E22Hh/none-Hi-Kn010G3/L0000-k0 (antibody, human IgG1, kappa, L234A L235A, N297A)
heavy: B2 heavy with S53G, Q56N, E64P, S104G, S106Y
chain: B1 chain
light: B1 light
notes: single-arm

Kd: 67 nM
B22: TR01H029-E22Hh/none-Hi-Kn010G3/L0000-k0 (antibody, human IgG1, kappa, L234A L235A, N297A)
heavy: B2 heavy with A23S, S53G, Q56N
chain: B1 chain
light: B1 light
notes: single-arm

Kd: 65.6 nM
B23: TR01H015-E22Hh/none-Hi-Kn010G3/TR01L001-k0 (antibody, human IgG1, kappa, L234A L235A, N297A)
heavy: B2 heavy with S53G, Q56N
chain: B1 chain
light: B1 light with R24Q, S25A, Q27E
notes: single-arm

Kd: 48.8 nM
B24: TR01H033-E22Hh/none-Hi-Kn010G3/L0000-k0 (antibody, human IgG1, kappa, L234A L235A, N297A)
heavy: B2 heavy with I111Y
chain: B1 chain
light: B1 light
notes: single-arm
